B1: ZNF649 (parent)
chain: EHERAHRGEKPHGCSLCGKAFYKR
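Further: lentivirally expressed fusions sorted by FACS into six bins by GFP to DsRed ratio, PSI derived from sequencing read proportions per bin multiplied by bin number.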

The variants in this data set derive from B1. As to the kind of experiment: protein stability index of a GFP-peptide fusion (GPS, HEK-293T) (PSI 1-6); higher = more stable. To be noted: c terminus: a fixed tail appended.
EHERAHRGMKPHGCSLCGKAFYKR [E9M]: the protein stability index was found to be 2.08.

Consider EHERAHRGRKPHGCSLCGKAFYKR [E9R], for which the protein stability index amounted to 3.66.

As for EHERAHRGTKPHGCSLCGKAFYKR [E9T], the protein stability index came out at 1.81.

Regarding EHERAHRGHKPHGCSLCGKAFYKR [E9H], the protein stability index was 2.13.

For EHERAHRGLKPHGCSLCGKAFYKR [E9L], the protein stability index turned out to be 2.16.

Regarding EHERAHRGIKPHGCSLCGKAFYKR [E9I], the protein stability index was 1.86.

Take EHERAHRGYKPHGCSLCGKAFYKR [E9Y]: the protein stability index was found to be 2.19.

Regarding EHERAHRGEKPHGFSLCGKAFYKR [C14F], the protein stability index worked out at 2.69.

As to EHERAHRGEKPHGASLCGKAFYKR [C14A], the protein stability index was found to be 4.66.

Consider EHERAHRGEKPHGKSLCGKAFYKR [C14K], for which the protein stability index is 4.59.

For EHERAHRGEKPHGLSLCGKAFYKR [C14L], the protein stability index worked out at 3.94.

Turning to EHERAHRGEKPHGRSLCGKAFYKR [C14R], the protein stability index is 3.73.

With EHERAHRGEKPHGTSLCGKAFYKR [C14T], the protein stability index was determined as 3.91.

With EHERAHRGEKPHGYSLCGKAFYKR [C14Y], the protein stability index was determined as 3.56.

For EHERAHRGEKPHGDSLCGKAFYKR [C14D], the protein stability index worked out at 4.54.

EHERAHRGEKPHGVSLCGKAFYKR [C14V]: the protein stability index was 4.78.

With EHERAHRGEKPHGPSLCGKAFYKR [C14P], the protein stability index came out at 3.12.

Take EHERAHRGEKPHGHSLCGKAFYKR [C14H]: the protein stability index was determined as 4.25.

As to EHERAHRGEKPHGSSLCGKAFYKR [C14S], the protein stability index was found to be 4.83.

Turning to EHERAHRGEKPHGISLCGKAFYKR [C14I], the protein stability index came to 4.24.

Consider EHERAHRGEKPHGNSLCGKAFYKR [C14N], for which the protein stability index was determined as 4.12.

EHERAHRGEKPHGGSLCGKAFYKR [C14G]: the protein stability index turned out to be 4.18.

Take EHERAHRGEKPWGCSLCGKAFYKR [H12W]: the protein stability index was 1.64.

With EHERAHRGEKPIGCSLCGKAFYKR [H12I], the protein stability index was 4.08.

Consider EHERAHRGEKPAGCSLCGKAFYKR [H12A], for which the protein stability index came out at 2.74.

Regarding EHERAHRGEKPNGCSLCGKAFYKR [H12N], the protein stability index turned out to be 1.47.

For the variant EHERAHRGEKPFGCSLCGKAFYKR [H12F], the protein stability index was determined as 3.39.

With EHERAHRGEKPGGCSLCGKAFYKR [H12G], the protein stability index is 1.89.

In the case of EHERAHRGEKPRGCSLCGKAFYKR [H12R], the protein stability index worked out at 1.66.

As for EHERAHRGEKPKGCSLCGKAFYKR [H12K], the protein stability index is 2.49.

Regarding EHERAHRGEKPQGCSLCGKAFYKR [H12Q], the protein stability index was found to be 2.18.

With EHERAHRGEKPCGCSLCGKAFYKR [H12C], the protein stability index worked out at 1.46.

For the variant EHERAHRGEKPPGCSLCGKAFYKR [H12P], the protein stability index is 1.7.

As to EHERAHRGEKPMGCSLCGKAFYKR [H12M], the protein stability index came out at 3.47.

Regarding EHERAHRGEKPSGCSLCGKAFYKR [H12S], the protein stability index came to 1.32.

As to EHERAHRGEKPEGCSLCGKAFYKR [H12E], the protein stability index amounted to 2.

For the variant EHERAHRNEKPHGCSLCGKAFYKR [G8N], the protein stability index is 2.12.

Take EHERAHRIEKPHGCSLCGKAFYKR [G8I]: the protein stability index stood at 2.01.

Consider EHERAHRMEKPHGCSLCGKAFYKR [G8M], for which the protein stability index amounted to 1.8.

EHERAHRTEKPHGCSLCGKAFYKR [G8T]: the protein stability index worked out at 1.91.

As for EHERAHRYEKPHGCSLCGKAFYKR [G8Y], the protein stability index came to 3.18.

Take EHERAHRPEKPHGCSLCGKAFYKR [G8P]: the protein stability index came out at 2.78.

In the case of EHERAHRSEKPHGCSLCGKAFYKR [G8S], the protein stability index came to 1.99.

Turning to EHERAHRHEKPHGCSLCGKAFYKR [G8H], the protein stability index came out at 2.83.

Consider EHERAHRFEKPHGCSLCGKAFYKR [G8F], for which the protein stability index was determined as 2.22.

Turning to EHERAHRDEKPHGCSLCGKAFYKR [G8D], the protein stability index worked out at 1.93.

In the case of EHERAHRWEKPHGCSLCGKAFYKR [G8W], the protein stability index was determined as 2.21.

For EHERAHRKEKPHGCSLCGKAFYKR [G8K], the protein stability index stood at 2.27.

Take EHERAHREEKPHGCSLCGKAFYKR [G8E]: the protein stability index came to 2.27.

Regarding EHERAHRQEKPHGCSLCGKAFYKR [G8Q], the protein stability index amounted to 3.17.

Turning to EHERAHRGEKPHGCSVCGKAFYKR [L16V], the protein stability index was 3.34.

In the case of EHERAHRGEKPHGCSQCGKAFYKR [L16Q], the protein stability index is 3.02.

Consider EHERAHRGEKPHGCSNCGKAFYKR [L16N], for which the protein stability index amounted to 2.07.

Regarding EHERAHRGEKPHGCSFCGKAFYKR [L16F], the protein stability index was 1.83.

On to EHERAHRGEKPHGCSCCGKAFYKR [L16C], for which the protein stability index is 3.54.

On to EHERAHRGEKPHGCSGCGKAFYKR [L16G], for which the protein stability index was found to be 3.96.

For EHERAHRGEKPHGCSTCGKAFYKR [L16T], the protein stability index was determined as 2.16.

EHERAHRGEKPHGCSYCGKAFYKR [L16Y]: the protein stability index was 2.14.

For EHERAHRGEKPHGCSDCGKAFYKR [L16D], the protein stability index stood at 3.82.

For EHERAHRGEKPHGCSACGKAFYKR [L16A], the protein stability index came out at 3.17.

For EHERAHRGEKPHGCSKCGKAFYKR [L16K], the protein stability index was found to be 2.79.

EHERAHRGEKPHGCSSCGKAFYKR [L16S]: the protein stability index stood at 1.97.

Regarding EHERAHRGEKPHGCSMCGKAFYKR [L16M], the protein stability index was found to be 1.74.

As for EHERAHRGEKPHGCSICGKAFYKR [L16I], the protein stability index was 2.2.

As for EHERAHRGEKPHGCSECGKAFYKR [L16E], the protein stability index is 3.8.

As for EHERAHRGEKPHGCSPCGKAFYKR [L16P], the protein stability index worked out at 3.48.

Regarding EHERAHRGEKPHGCSRCGKAFYKR [L16R], the protein stability index was 2.18.

With EHERAHRGEKPHGCSLGGKAFYKR [C17G], the protein stability index was 4.07.

Take EHERAHRGEKPHGCSLKGKAFYKR [C17K]: the protein stability index was 4.13.

As to EHERAHRGEKPHGCSLEGKAFYKR [C17E], the protein stability index was 2.58.

Consider EHERAHRGEKPHGCSLHGKAFYKR [C17H], for which the protein stability index was determined as 3.67.

On to EHERAHRGEKPHGCSLPGKAFYKR [C17P], for which the protein stability index worked out at 3.85.

As for EHERAHRGEKPHGCSLIGKAFYKR [C17I], the protein stability index turned out to be 3.81.

With EHERAHRGEKPHGCSLMGKAFYKR [C17M], the protein stability index came to 3.87.

For the variant EHERAHRGEKPHGCSLNGKAFYKR [C17N], the protein stability index turned out to be 4.44.

In the case of EHERAHRGEKPHGCSLDGKAFYKR [C17D], the protein stability index worked out at 4.19.

In the case of EHERAHRGEKPHGCSLLGKAFYKR [C17L], the protein stability index stood at 3.64.

Turning to EHERAHRGEKPHGCSLFGKAFYKR [C17F], the protein stability index was determined as 3.48.

For EHERAHRGEKPHGCPLCGKAFYKR [S15P], the protein stability index worked out at 4.16.

EHERAHRGEKPHGCELCGKAFYKR [S15E]: the protein stability index was found to be 2.21.

Take EHERAHRGEKPHGCRLCGKAFYKR [S15R]: the protein stability index turned out to be 2.23.

Turning to EHERAHRGEKPHGCKLCGKAFYKR [S15K], the protein stability index is 3.12.

For EHERAHRGEKPHGCHLCGKAFYKR [S15H], the protein stability index is 5.95.

In the case of EHERAHRGEKPHGCGLCGKAFYKR [S15G], the protein stability index stood at 1.56.

For the variant EHERAHRGEKPHGCQLCGKAFYKR [S15Q], the protein stability index stood at 1.41.

On to EHERAHRGEKPHGCWLCGKAFYKR [S15W], for which the protein stability index was found to be 1.72.

For the variant EHERAHRGEKPHGCILCGKAFYKR [S15I], the protein stability index turned out to be 2.01.

EHERAHRGEKPHGCNLCGKAFYKR [S15N]: the protein stability index is 2.39.

With EHERAHRGEKPHGCYLCGKAFYKR [S15Y], the protein stability index came to 2.48.

Take EHERAHRGEKPHGCLLCGKAFYKR [S15L]: the protein stability index amounted to 2.27.

Take EHERAHRGEKPHGCALCGKAFYKR [S15A]: the protein stability index amounted to 1.84.

With EHERAHRGEKPHGCMLCGKAFYKR [S15M], the protein stability index came out at 1.93.

In the case of EHERAHRGEKPHGCVLCGKAFYKR [S15V], the protein stability index was 1.67.

Consider EHERAHRGEKPHGCDLCGKAFYKR [S15D], for which the protein stability index was determined as 3.14.
